According to patent US20180044435A1 (GENEFRONTIER, published 2018):

Experiments:
[1] = molecular target: T1, MBP-human ADAM28m 524-659 (human, UniProt Q9UKQ2 524-659); assay: SPR, BIAcore 3000, fusion protein amine-coupled on CM5 chip, antibody injected
T1 construct: also called the immunogen
T1 sequence: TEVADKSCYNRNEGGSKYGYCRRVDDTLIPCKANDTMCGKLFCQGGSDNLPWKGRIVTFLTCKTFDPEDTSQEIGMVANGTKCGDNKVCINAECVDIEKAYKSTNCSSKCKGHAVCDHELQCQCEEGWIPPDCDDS
Description: (§1) A fusion protein in which a 524-659 region of human membrane-anchored form ADAM28 (SEQ ID NO: 2) is added to C-terminal of MBP (MBP-human ADAM28m 524-659) and a fusion protein in which a 527-622 region of mouse membrane-anchored form ADAM28 (SEQ ID NO: 26) is added to C-terminal of MBP (MBP-mouse ADAM28m 527-622) were each immobilized on CM5 sensor chip (GE Healthcare Life Sciences, Buckinghamshire, UK) by amine-coupling and 2B6D10 antibody was injected to a flow cell by using BIAcore 3000 (GE Healthcare Life Sciences). The KD value was calculated from the measured Ka and Kd values.

[2] = molecular target: T2, MBP-mouse ADAM28m 527-622 (mouse, UniProt Q9JLN6 527-622); assay: as above
T2 sequence: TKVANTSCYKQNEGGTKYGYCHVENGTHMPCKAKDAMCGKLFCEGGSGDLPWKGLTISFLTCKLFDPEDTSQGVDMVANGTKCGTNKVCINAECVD
Description: as §1

[3] = molecular target: fusion protein of MBP with region 524-562 of human membrane-anchored form ADAM28 (SEQ ID NO: 2) at its … (human); assay: Western blotting
Description: The reactivity of anti-human membrane-anchored form ADAM28 antibody 2B6D10 with the above-mentioned fusion proteins was evaluated by Western blotting.

[4] = molecular target: T3, mouse membrane-anchored form ADAM28 (mouse, UniProt Q9JLN6 196-774); assay: immunofluorescence staining of transfected CHO-K1 cells, 5 µg/ml antibody
T3 construct: Expressed on transfected CHO-K1 cells; also called mouse ADAM28m; mouse ADAM28
T3 chain: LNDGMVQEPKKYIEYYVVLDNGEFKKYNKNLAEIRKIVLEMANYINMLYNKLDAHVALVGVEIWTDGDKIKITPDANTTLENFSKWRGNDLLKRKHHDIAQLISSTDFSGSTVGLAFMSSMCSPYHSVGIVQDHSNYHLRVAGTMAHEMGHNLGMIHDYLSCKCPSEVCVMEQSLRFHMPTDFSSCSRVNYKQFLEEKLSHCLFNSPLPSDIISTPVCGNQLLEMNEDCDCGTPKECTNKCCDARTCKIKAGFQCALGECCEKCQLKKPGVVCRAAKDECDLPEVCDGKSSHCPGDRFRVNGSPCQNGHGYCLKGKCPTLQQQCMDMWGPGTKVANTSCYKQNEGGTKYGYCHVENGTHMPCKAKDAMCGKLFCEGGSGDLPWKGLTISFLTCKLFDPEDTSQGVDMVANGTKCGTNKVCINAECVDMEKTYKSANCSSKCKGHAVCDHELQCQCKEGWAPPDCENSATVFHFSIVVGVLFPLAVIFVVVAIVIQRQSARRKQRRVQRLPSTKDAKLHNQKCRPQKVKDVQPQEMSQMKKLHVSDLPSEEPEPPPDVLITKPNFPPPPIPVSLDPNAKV
Description: CHO-K1 cells co-transfected with mouse membrane-anchored form ADAM28 and EGFP were treated with 2B6D10 antibody (5 μg/ml) at 4° C. for 1.5 hr. The cells were washed and treated with anti-mouse IgG-Alexa555 (1:300) at 4° C. for 1 hr. The cells were washed, fixed and observed. The results are shown in, FIG. 3.

B1: anti-human membrane-anchored form ADAM28 antibody 2B6D10 (antibody, V domains shown)
VH: QVQLQQSGAELARPGASVKLSCKASGYTFTSYGISWVKQRTGQGLEWIGEIYPRSGNTYYNEKFKGKATLTADKSSSTAYMELRRLTSEDSAVFFCARENVYSSNYGFAFWGQGTLVTVSA
VL: DVLMTQTPLSLPVSLGDQASISCRSSQNIIHSDGNTYLEWYLQKPGQSPKFLIYKVSNRFSGVPDRFSGSGSGTDFTLKISRVEAEDLGVYYCLQGSHVPWTFGGGTKLEIKR
notes: Mouse monoclonal antibody from a hybridoma, detected with anti-mouse IgG; also called 2B6D10 antibody; clone 2B6D10
**Q.** B1 was tested. Which Kd [1] did it give?
**A.** 0.0935 nM

**Q.** What about the Kd [2] of the same binder?
**A.** 0.236 nM

**Q.** Does B1 bind [3]?
**A.** binds

**Q.** Does B1 bind [4]?
**A.** binds
